Assay [1] has as its target T1, human BACE1 ECD.
T1 construct: analyte of the Octet assay (200 nM) and enzyme of the first short substrate assay; also called human BACE1 extracellular domain
Description: Octet, pH 5.0, second run. For orientation: BLI is a label-free optical method that tracks binding on a fibre tip over time.

The target of assay [2] is T2, murine BACE1 ECD.
T2 construct: analyte of the Octet assay (200 nM) and enzyme of the first short substrate assay
Description: Octet, pH 5.0, second run.

Assay [3] concerns the target T1, human BACE1 ECD. Description: cell-based or functional assay.
For assay [4], the target named is T2, murine BACE1 ECD. Description: cell-based or functional assay.
The target of assay [5] is T1, human BACE1 ECD. Description: Octet, pH 5.0.
The target of assay [6] is T2, murine BACE1 ECD. Description: Octet, pH 5.0.
Assay [7] addresses T3, human BACE1 (R&D Systems) (human, UniProt P56817).
T3 construct: recombinant, commercial (R&D Systems)
Description: SPR (Biacore). For orientation: SPR reads the build-up and loss of mass on a sensor chip optically.

Assay [8] has as its target T4, BACE1 (HTRF long substrate and FRET short substrate assays of Example 9D). Description: cell-based or functional assay.
Assay [9] has as its target T1, human BACE1 ECD. Description: Octet, pH 7.5.
Assay [10] addresses T2, murine BACE1 ECD. Description: Octet, pH 7.5.
For assay [11], the target named is T3, human BACE1 (R&D Systems). Description: SPR (Biacore), second run.
Assay [12] deals with T5, BACE1 in primary mouse cortical neurons (mouse, UniProt P56818 46-501). Description: cell-based or functional assay.
Assay [13] concerns the target T1, human BACE1 ECD. Description: Octet, pH 7.5, second run.
Assay [14] deals with T2, murine BACE1 ECD. Description: Octet, pH 7.5, second run.
The target in assay [15] is T5, BACE1 in primary mouse cortical neurons. Description: cell-based or functional assay. The source holds these as a separate data set.
The target in assay [16] is T1, human BACE1 ECD. Description: Octet, pH 5.0. This is another data set of the same source.
Assay [17] addresses T2, murine BACE1 ECD. Description: Octet, pH 5.0. The source holds these as a separate data set.
The target of assay [18] is T3, human BACE1 (R&D Systems). Description: SPR (Biacore). The source holds these as a separate data set.
For assay [19], the target named is T1, human BACE1 ECD. Description: Octet, pH 7.5. The source holds these as a separate data set.
In assay [20] the target is T2, murine BACE1 ECD. Description: Octet, pH 7.5. The source holds these as a separate data set.
Assay [21] addresses T1, human BACE1 ECD. Description: Octet, pH 5.0. This is another data set of the same source.
For assay [22], the target named is T2, murine BACE1 ECD. Description: Octet, pH 5.0. The source holds these as a separate data set.
The target in assay [23] is T1, human BACE1 ECD. Description: Octet, pH 7.5, second run. The source holds these as a separate data set.
For assay [24], the target named is T2, murine BACE1 ECD. Description: Octet, pH 7.5, second run. This is another data set of the same source.
Assay [25] concerns the target T1, human BACE1 ECD. Description: Octet, pH 5.0, second run. The source holds these as a separate data set.
The target of assay [26] is T2, murine BACE1 ECD. Description: Octet, pH 5.0, second run. This is another data set of the same source.
Assay [27] concerns the target T3, human BACE1 (R&D Systems). Description: SPR (Biacore), second run. The source holds these as a separate data set.
The target of assay [28] is T4, BACE1 (HTRF long substrate and FRET …). Description: cell-based or functional assay. The source holds these as a separate data set.
Assay [29] deals with T1, human BACE1 ECD. Description: Octet, pH 7.5. The source holds these as a separate data set.
Assay [30] has as its target T2, murine BACE1 ECD. Description: Octet, pH 7.5. The source holds these as a separate data set.
Assay [31] concerns the target T3, human BACE1 (R&D Systems). Description: SPR (Biacore). This is another data set of the same source.

Residue numbers refer to the chain shown, from its start. Like-named read-outs stand apart in the source and are kept apart here.

A word on the Kd: it is the concentration at which binding is half-saturated. Read a low Kd as tighter binding.

T1 sequence (single chain, as listed by the source limits assumed): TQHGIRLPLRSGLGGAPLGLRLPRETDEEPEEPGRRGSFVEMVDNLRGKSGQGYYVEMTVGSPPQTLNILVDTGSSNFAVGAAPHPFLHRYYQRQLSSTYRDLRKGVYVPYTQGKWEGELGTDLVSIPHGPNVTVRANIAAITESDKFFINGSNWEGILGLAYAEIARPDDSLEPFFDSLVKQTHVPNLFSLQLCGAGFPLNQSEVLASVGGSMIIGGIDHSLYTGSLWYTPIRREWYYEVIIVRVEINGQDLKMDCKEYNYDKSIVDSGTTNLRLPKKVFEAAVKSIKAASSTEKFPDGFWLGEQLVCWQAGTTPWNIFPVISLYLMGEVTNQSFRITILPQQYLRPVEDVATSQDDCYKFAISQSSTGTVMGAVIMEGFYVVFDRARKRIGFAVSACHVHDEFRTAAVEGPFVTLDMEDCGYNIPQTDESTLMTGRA
T2 sequence (single chain, as listed by the source limits assumed): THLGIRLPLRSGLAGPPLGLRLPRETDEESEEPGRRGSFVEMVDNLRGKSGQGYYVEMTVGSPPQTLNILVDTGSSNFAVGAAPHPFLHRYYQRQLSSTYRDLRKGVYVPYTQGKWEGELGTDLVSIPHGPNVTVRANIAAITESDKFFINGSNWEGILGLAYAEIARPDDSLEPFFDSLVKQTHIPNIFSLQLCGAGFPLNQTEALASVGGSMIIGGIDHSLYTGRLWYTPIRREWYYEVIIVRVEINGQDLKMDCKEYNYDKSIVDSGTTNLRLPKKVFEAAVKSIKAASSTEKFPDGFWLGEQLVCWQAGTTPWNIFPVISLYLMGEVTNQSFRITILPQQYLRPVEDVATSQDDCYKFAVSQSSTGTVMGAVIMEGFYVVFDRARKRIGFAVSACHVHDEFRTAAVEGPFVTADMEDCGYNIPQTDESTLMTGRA
T5 sequence (P56818 46-501): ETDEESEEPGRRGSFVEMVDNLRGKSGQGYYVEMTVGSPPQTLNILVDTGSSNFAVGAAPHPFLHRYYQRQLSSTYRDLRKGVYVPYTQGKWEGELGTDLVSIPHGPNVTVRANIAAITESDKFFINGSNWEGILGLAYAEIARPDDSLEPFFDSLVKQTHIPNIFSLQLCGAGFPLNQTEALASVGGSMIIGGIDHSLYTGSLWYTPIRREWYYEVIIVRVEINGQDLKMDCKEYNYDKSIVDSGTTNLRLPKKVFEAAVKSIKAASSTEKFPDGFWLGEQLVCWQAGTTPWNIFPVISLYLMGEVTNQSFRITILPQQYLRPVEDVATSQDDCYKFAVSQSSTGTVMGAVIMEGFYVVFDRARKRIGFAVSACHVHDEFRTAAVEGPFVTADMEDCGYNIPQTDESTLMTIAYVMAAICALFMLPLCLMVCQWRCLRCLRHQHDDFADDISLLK
T3 sequence (P56817 22-457 limits assumed): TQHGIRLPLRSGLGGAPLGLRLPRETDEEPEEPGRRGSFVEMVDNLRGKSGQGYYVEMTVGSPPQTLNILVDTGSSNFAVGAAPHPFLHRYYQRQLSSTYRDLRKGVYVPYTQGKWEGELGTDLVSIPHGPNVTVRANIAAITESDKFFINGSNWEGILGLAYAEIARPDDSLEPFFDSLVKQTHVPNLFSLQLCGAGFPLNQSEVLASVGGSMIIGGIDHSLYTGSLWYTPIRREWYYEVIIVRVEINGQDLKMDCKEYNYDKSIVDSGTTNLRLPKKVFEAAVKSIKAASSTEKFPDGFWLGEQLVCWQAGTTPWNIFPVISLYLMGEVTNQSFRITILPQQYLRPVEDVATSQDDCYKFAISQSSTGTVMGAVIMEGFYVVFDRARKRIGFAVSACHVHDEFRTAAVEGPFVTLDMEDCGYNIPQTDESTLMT

B1: 5896 (antibody, V domains shown)
VH: QLQLQESGPGLVKPSETLSLTCTVSGGSISSSSYYWGWIRQPPGKGLEWIGSIYRSGSTYYNPSLKSRVTISVDTSKNQFSLKLSSVTAADTAVYYCARVGHGISYFDLWGRGTLVTVSS
VL: EIVLTQSPATLSLSPGERATLSCRASQSVSSYLAWYQQKPGQAPRLLIYDASNRATGIPARFSGSGSGTDFTLTISSLEPEDFAVYYCQQSLTWPPRTFGGGTKVEIK
notes: anti-BACE1 IgG
B1: the Kd amounted to 1.1 nM with human BACE1 ECD [1]; 1 nM with murine BACE1 ECD [2]; 3 nM in the assay with human BACE1 ECD [5]; 3.1 nM with murine BACE1 ECD [6]; 3.4 nM in assay [7]; 1.9 nM with human BACE1 ECD [9]. Further, the Kd in the assay with murine BACE1 ECD [10] is 2.9 nM; in [11] it was 5.18 nM; with human BACE1 ECD [13], 0.71 nM; in the assay with murine BACE1 ECD [14], 0.8 nM. The “% inhibition of BACE1 activity, short FRET substrate” value (“% inhibition of BACE1 activity” for short) was -4% with human BACE1 ECD [3] and -3% in the assay with murine BACE1 ECD [4]. The “EC50, FRET short substrate” value in assay [8] is 3.35 nM. For the same molecule, the “EC50, HTRF long substrate” value in assay [8] stood at 3.46 nM. For the same molecule, in [12], the “IC50, Abeta x-40 in mouse cortical neurons” value was determined as 2.7 nM. In addition, the “IC50, Abeta x-40 in mouse cortical neurons (5896*, second run)” value in assay [12] was found to be 5.72 nM. Besides, in [12], the “maximal % inhibition of Abeta x-40” value was found to be 65%.

B2: 6310 (antibody, V domains shown)
VH: B1 VH with S31W, G37S, S58R, S105N
VL: B1 VL with L92V
notes: anti-BACE1 IgG
As for B2, the “IC50, Abeta x-40 in mouse cortical neurons” value in [15] was found to be 0.17 nM. Further, the “maximal % inhibition of Abeta x-40” value in assay [15] turned out to be 71%. For the same molecule, the Kd with human BACE1 ECD [16] was found to be 0.44 nM; with murine BACE1 ECD [17] it was 0.5 nM; in [18] it was 1.63 nM; in the assay with human BACE1 ECD [19] it was 0.46 nM; in the assay with murine BACE1 ECD [20], 0.47 nM.

B3: 5884 (antibody, V domains shown)
VH: QVQLVQSGAEVKKPGSSVKVSCKASGGTFSGYGISWVRQAPGQGLEWMGNIIPGFGTANYAQKFQGRVTITADESTSTAYMELSSLRSEDTAVYYCARSGGTKYGMLDVWGQGTMVTVSS
VL: EIVMTQSPATLSVSPGERATLSCRASQSVSSNLAWYQQKPGQAPRLLIYGASTRATGIPARFSGSGSGTEFTLTISSLQSEDFAVYYCQQLILWPPRTFGGGTKVEIK
notes: anti-BACE1 IgG
In the case of B3, the “% inhibition of BACE1 activity” value is -102% with human BACE1 ECD [3] and -243% with murine BACE1 ECD [4]. Besides, the Kd in the assay with human BACE1 ECD [21] was 1.4 nM; with murine BACE1 ECD [22], 2 nM; in the assay with human BACE1 ECD [23], 0.46 nM; with murine BACE1 ECD [24], 0.49 nM; in the assay with human BACE1 ECD [25], 0.86 nM; in the assay with murine BACE1 ECD [26], 1.3 nM. For the same molecule, the Kd in assay [27] was 5.23 nM; in the assay with human BACE1 ECD [29], 0.92 nM; in the assay with murine BACE1 ECD [30] it was 1.3 nM; in assay [31], 2.62 nM. In addition, the “EC50, FRET short substrate” value in assay [28] was 0.478 nM. For the same molecule, the “EC50, HTRF long substrate” value in [28] was 7.76 nM. Also, the “IC50, Abeta x-40 in mouse cortical neurons” value in assay [12] was determined as 4.56 nM. Further, the “IC50, Abeta x-40 in mouse cortical neurons (5884*, second run)” value in [12] was 3.51 nM. Further, the “maximal % inhibition of Abeta x-40” value in [12] was determined as 83%.

B4: 6303 (antibody, V domains shown)
VH: B3 VH with F29L, G33A, F64S, K103R
VL: B3 VL with Y49F, I92L, L93T
notes: anti-BACE1 IgG
As for B4, the “IC50, Abeta x-40 in mouse cortical neurons” value in assay [15] was found to be 4.1 nM. Further, the “maximal % inhibition of Abeta x-40” value in assay [15] amounted to 76%. The Kd in the assay with human BACE1 ECD [16] was below 0.26 nM; in the assay with murine BACE1 ECD [17], below 0.32 nM; in assay [18], 3.09 nM; with human BACE1 ECD [19] it was below 0.32 nM; in the assay with murine BACE1 ECD [20], below 0.35 nM.

B5: 5887 (antibody, V domains shown)
VH: B3 VH with S30R, G33A
VL: B3 VL
notes: anti-BACE1 IgG
For B5, the Kd in the assay with human BACE1 ECD [1] worked out at 1.4 nM; with murine BACE1 ECD [2], 1.8 nM; in the assay with human BACE1 ECD [21], 2.2 nM; with murine BACE1 ECD [22], 2.3 nM; in assay [11], 7.08 nM; with human BACE1 ECD [29], 1.1 nM. Further, the Kd with murine BACE1 ECD [30] was determined as 1.4 nM; with human BACE1 ECD [13], 0.45 nM; with murine BACE1 ECD [14], 0.54 nM; in assay [31] it was 3.58 nM. Further, the “% inhibition of BACE1 activity” value is -102% with human BACE1 ECD [3] and -230% with murine BACE1 ECD [4]. Also, the “EC50, FRET short substrate” value in assay [28] amounted to 0.482 nM. Besides, in assay [28], the “EC50, HTRF long substrate” value is 5.5 nM. Also, the “IC50, Abeta x-40 in mouse cortical neurons” value in [12] turned out to be 1.74 nM. Further, in [12], the “IC50, Abeta x-40 in mouse cortical neurons (5887*, second run)” value came out at 2.53 nM. Also, the “maximal % inhibition of Abeta x-40” value in assay [12] is 75%.

Values taken from patent US20180057604A1 (Genentech, published 2018).
